According to PMC5294574, “Stoichiometry and structure of a lantibiotic maturation complex” (Scientific Reports, 2017):

B1: NisB (lantibiotic dehydratase) (enzyme, Lactococcus lactis)
chain: MIKSSFKAQPFLVRNTILCPNDKRSFTEYTQVIETVSKNKVFLEQLLLANPKLYDVMQKYNAGLLKKKRVKKLFESIYKYYKRSYLRSTPFGLFSETSIGVFSKSSQYKLMGKTTKGIRLDTQWLIRLVHKMEVDFSKKLSFTRNNANYKFGDRVFQVYTINSSELEEVNIKYTNVYQIISEFCENDYQKYEDICETVTLCYGDEYRELSEQYLGSLIVNHYLISNLQKDLLSDFSWNTFLTKVEAIDEDKKYIIPLKKVQKFIQEYSEIEIGEGIEKLKEIYQEMSQILENDNYIQIDLISDSEINFDVKQKQQLEHLAEFLGNTTKSVRRTYLDDYKDKFIEKYGVDQEVQITELFDSTFGIGAPYNYNHPRNDFYESEPSTLYYSEEEREKYLSMYVEAVKNHNVINLDDLESHYQKMDLEKKSELQGLELFLNLAKEYEKDIFILGDIVGNNNLGGASGRFSALSPELTSYHRTIVDSVERENENKEITSCEIVFLPENIRHANVMHTSIMRRKVLPFFTSTSHNEVLLTNIYIGIDEKEKFYARDISTQEVLKFYITSMYNKTLFSNELRFLYEISLDDKFGNLPWELIYRDFDYIPRLVFDEIVISPAKWKIWGRDVNSKMTIRELIQSKEIPKEFYIVNGDNKVYLSQKNPLDMEILESAIKKSSKRKDFIELQEYFEDENIINKGEKGRVADVVVPFIRTRALGNEGRAFIREKRVSVERREKLPFNEWLYLKLYISINRQNEFLLSYLPDIQKIVANLGGNLFFLRYTDPKPHIRLRIKCSDLFLAYGSILEILKRSRKNRIMSTFDISIYDQEVERYGGFDTLELSEAIFCADSKIIPNLLTLIKDTNNDWKVDDVSILVNYLYLKCFFQNDNKKILNFLNLVSTKKVKENVNEKIEHYLKLLKVNNLGDQIFYDKNFKELKHAIKNLFLKMIAQDFELQKVYSIIDSIIHVHNNRLIGIERDKEKLIYYTLQRLFVSEEYMK
notes: Nisin dehydratase NisB of Lactococcus lactis; theoretical molecular weight of the dimer 236.6 kDa; Dimer by MALS-SEC and SAXS; also called dehydratase NisB; apo-NisB; source: L. lactis NZ9000, homologously expressed, purified (IMAC, SEC)

Key:
[1] = molecular target: NisB (lantibiotic dehydratase) (Lactococcus lactis) (UniProt P20103); experiment: SEC-MALS; 20 μM NisB and 200 μM prenisin peptide variant kept constant, NisC varied from 10 μM to 160 μM; 50 mM HEPES-NaOH, pH 7.5, 500 mM NaCl
[2] = molecular target: NisC (lantibiotic cyclase) (Lactococcus lactis) (UniProt Q03202); experiment: as above
NisC (lantibiotic cyclase) (Lactococcus lactis), sequence (Q03202 whole entry): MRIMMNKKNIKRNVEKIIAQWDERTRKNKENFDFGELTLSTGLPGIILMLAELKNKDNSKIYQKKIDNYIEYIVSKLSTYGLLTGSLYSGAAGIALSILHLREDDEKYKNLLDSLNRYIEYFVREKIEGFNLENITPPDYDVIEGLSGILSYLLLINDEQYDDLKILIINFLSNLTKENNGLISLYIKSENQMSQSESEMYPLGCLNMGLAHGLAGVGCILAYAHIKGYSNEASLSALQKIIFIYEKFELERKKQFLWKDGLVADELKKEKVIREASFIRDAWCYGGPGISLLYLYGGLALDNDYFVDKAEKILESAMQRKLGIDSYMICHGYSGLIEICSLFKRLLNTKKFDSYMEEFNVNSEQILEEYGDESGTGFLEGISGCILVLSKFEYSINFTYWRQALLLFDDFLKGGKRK

[3] = molecular target: NisB (lantibiotic dehydratase) (Lactococcus lactis) (UniProt P20103); experiment: SEC-MALS; 20 μM NisC or 20 μM NisB incubated with 200 μM unmodified prenisin peptide for 1 h at 25 °C; 50 mM HEPES-NaOH, pH 7.5, 500 mM NaCl
[4] = molecular target: NisC (lantibiotic cyclase) (Lactococcus lactis) (UniProt Q03202); experiment: as above
[5] = molecular target: the molecule itself; experiment: SEC-MALS; isolated NisB or NisC, 200 μL of a 20 μM solution; 50 mM HEPES-NaOH, pH 7.5, 500 mM NaCl

| Molecule | stoichiometry N (prenisin per NisB dimer) [1] | stoichiometry N (prenisin per NisC monomer) [2] | stoichiometry N (per NisB dimer) [3] | stoichiometry N (per NisC monomer) [4] | stoichiometry N [5] |
| --- | --- | --- | --- | --- | --- |
| unmodified prenisin peptide | 1 | 1 | 1 | 1 | – |
| B1 | – | – | – | – | 2 |
